# Source: patent US20220267421A1 (INVOX PHARMA, published 2022)
# Read-outs that look alike come from different tables or passages of the source.
# Legend:
# human MSLN-His-Avi [1] = target: T1, human MSLN-His-Avi (human, UniProt Q13421 296-598, single biotin (BirA) in the biotinylated form); assay: SPR (Biacore), MSLN immobilised, mAb^2 injected
# T1 construct: Monomeric, made in HEK293-6E; Used both immobilised and in solution; also called hMSLN-His-Avi; biotinylated hMSLN-His-Avi
# Description: (§1) Human MSLN-His-Avi was immobilised on flow cell 2 on a CM5 Series S BIAcore sensor chip (GE Healthcare, BR100530) using an amine coupling kit (GE Healthcare, BR10050) to approximately 200 response units (RU). Flow cell 1 was left blank for subtraction. HEK293-6E supernatants or purified proteins were adjusted with HBS-EP+(GE Healthcare) to approximately 50 nM anti-MSLN mAb per sample. Samples were injected over flow cell 1 and 2 for 2.5 min at 30 μl/min and then allowed to dissociate in HBS-EP buffer for 2.5 min. Regeneration was achieved by injecting 10 mM glycine pH 1.5 (GE Healthcare, BR100354) for 30 seconds at a rate of 30 μl/min. Subtracted data (flow cell 2−flow cell 1) were analysed using BIAevaluation 3.2 Software (GE Healthcare).
# (§2) Binding of the selected anti-MSLN clones in mAb² format, to recombinant human and cyno MSLN-His-Avi antigen was measured by SPR using a Biacore T200 processing unit (GE Healthcare). As previously described, it was desirable to bind more strongly to immobilised antigen than to soluble antigen. To assess the binding properties of the clones, binding kinetics to immobilised MSLN antigen were determined as described in section 2.1.2 and compared to the kinetics obtained when MSLN antigens in solution bound to captured clones.
# human MSLN-His-Avi [2] = target: T1, human MSLN-His-Avi; assay: SPR (Biacore), mAb^2 captured on Protein G, MSLN in solution injected
# Description: as §2
# (§3) For the capture experiments, clones in mAb² format were captured using a BIAcore sensor series S chip Protein G (GE Healthcare, 29179315). mAb² diluted in HBS-EP buffer (GE Healthcare, BR100188) containing 900 mM […] at 1 μg/ml, were injected individually on flow cell 2, 3 and 4 at 30 μl/min to achieve a response of approximately 100 RU. G1-AA/HeID1.3 was captured on flow cell 1. The recombinant human and cyno MSLN-His-Avi (section 1.1), diluted in HBS-EP buffer containing 900 mM […], were injected on flow cell 1, 2, 3 or 4 as appropriate at a concentration range of 1000 nM to 0.051 nM with 3-fold dilutions for 5 minutes at 70 μl/min and then allowed to dissociate in buffer for 5 minutes. Regeneration was achieved by injecting 10 mM glycine pH1.5 (GE Healthcare, BR100354) and surfactant P20 (GE Healthcare, BR-1000-54) for 20 seconds at a rate of 30 μl/min. Subtracted data (flow cell 2−flow cell 1, flow cell 3−flow cell 1, or flow cell 4−flow cell 1) were analysed using BIAevaluation 3.2 Software (GE Healthcare) to identify binding using the model 1:1 binding, local Rmax and with refractive index (RI) constant 0.
# cynomolgus MSLN-His-Avi [3] = target: T2, cynomolgus MSLN-His-Avi (cynomolgus, single biotin (BirA) in the biotinylated form); assay: as above
# T2 construct: Monomeric, made in HEK293-6E; also called cMSLN-His-Avi; cyno MSLN-His-Avi
# T2 chain: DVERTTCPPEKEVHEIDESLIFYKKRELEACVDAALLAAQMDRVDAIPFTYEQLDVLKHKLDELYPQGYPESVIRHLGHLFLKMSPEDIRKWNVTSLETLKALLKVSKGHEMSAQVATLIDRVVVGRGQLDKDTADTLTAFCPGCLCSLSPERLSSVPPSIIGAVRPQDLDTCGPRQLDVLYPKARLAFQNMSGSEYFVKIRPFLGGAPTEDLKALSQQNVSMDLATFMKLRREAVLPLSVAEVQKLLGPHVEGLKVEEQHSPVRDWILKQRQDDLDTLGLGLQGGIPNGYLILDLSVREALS
# Description: as §2, §3
# [4] = target: T3, cell surface human mesothelin (MSLN) (human, UniProt Q13421 296-598); assay: flow cytometry (BD CantoII), NCI-H226 cells + 20 nM soluble MSLN
# T3 construct: whole, on cells; also called cell surface MSLN
# human MSLN-His-Avi [5] = target: T1, human MSLN-His-Avi; assay: ratio of the two SPR KD
# Description: as §1, §2
# as §3, with “μl/min.” for “μl/min. Subtracted data (flow cell 2−flow cell 1, flow cell 3−flow cell 1, or flow cell 4−flow cell 1) were analysed using BIAevaluation 3.2 Software (GE Healthcare) to identify binding using the model 1:1 binding, local Rmax and with refractive index (RI) constant 0.”
# [6] = target: T3, cell surface human mesothelin (MSLN); assay: flow cytometry (BD CantoII), NCI-H226 cells
# [7] = target: T3, cell surface human mesothelin (MSLN); assay: cell-based or functional assay
# CD137 on CD8+ T cells = CD137 on CD8+ T cells (human, UniProt Q07011 24-255); assay: cell-based or functional assay
# human MSLN-His-Avi [8] = target: T1, human MSLN-His-Avi; assay: SPR as Example 4.1 (about 40 RU instead of 100), MSLN in solution
# human MSLN-His-Avi [9] = target: T1, human MSLN-His-Avi; assay: ratio of the two SPR KD; remark: listed apart in the source
# human MSLN-His-Avi [10] = target: T1, human MSLN-His-Avi; assay: SPR as Example 4.1 (about 40 RU instead of 100), MSLN immobilised
# [11] = target: T4, OX40 on activated T cells (UniProt P43489 29-277, limits assumed); assay: cell-based or functional assay
# T4 sequence (looked up): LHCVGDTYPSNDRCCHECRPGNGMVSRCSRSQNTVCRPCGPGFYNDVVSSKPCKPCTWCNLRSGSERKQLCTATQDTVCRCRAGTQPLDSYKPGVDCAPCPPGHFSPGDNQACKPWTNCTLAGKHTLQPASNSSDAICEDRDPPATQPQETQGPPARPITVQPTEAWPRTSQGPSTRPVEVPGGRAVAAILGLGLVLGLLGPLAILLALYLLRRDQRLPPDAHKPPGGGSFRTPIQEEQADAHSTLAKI
# cynomolgus MSLN-His-Avi [12] = target: T2, cynomolgus MSLN-His-Avi; assay: SPR steady-state analysis, cMSLN-His-Avi coated at about 50 RU
# Description: The association time was 1000 sec to steady state and the dissociation time was 30 sec. Running buffer was HBS-EP (GE Healthcare BR100188). Flow cells were regenerated by injecting Glycine-HCl pH1.5 at a flow rate of 30 μl/min for 30 seconds. Data were analysed by double referencing against a flow cell which was intentionally left blank (no antigen coating). Steady state affinity model was used to analyse kinetic data using the BiaEvaluation software version 3.2.
# T3 sequence (Q13421 other isoform, or with tags, fused parts or gaps limits assumed): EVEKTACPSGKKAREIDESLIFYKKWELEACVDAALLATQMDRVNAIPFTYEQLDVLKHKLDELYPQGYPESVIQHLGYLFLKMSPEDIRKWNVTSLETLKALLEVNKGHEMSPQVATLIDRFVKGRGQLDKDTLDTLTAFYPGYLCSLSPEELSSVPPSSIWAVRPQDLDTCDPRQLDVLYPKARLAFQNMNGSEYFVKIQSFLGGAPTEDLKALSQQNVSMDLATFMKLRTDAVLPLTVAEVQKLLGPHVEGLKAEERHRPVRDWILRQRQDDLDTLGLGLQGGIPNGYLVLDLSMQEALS
# T1 sequence (Q13421 other isoform, or with tags, fused parts or gaps): as the sequence (Q13421 other isoform, or with tags, fused parts or gaps limits assumed) above
# CD137 on CD8+ T cells, sequence (Q07011 24-255): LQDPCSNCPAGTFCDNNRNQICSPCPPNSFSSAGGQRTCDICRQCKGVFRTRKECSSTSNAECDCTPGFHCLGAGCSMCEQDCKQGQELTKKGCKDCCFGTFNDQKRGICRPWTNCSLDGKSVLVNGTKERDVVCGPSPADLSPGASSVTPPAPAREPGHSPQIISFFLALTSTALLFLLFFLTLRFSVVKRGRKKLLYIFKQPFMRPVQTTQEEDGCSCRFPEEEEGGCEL
binder,measurement,setting,value
"FS22-053-008-AA/FS28-185 (bispecific antibody, human IgG1, kappa, L234A L235A, V domains shown) VH: EVQLLESGGGLVQPGGSLRLSCAASGFTFTTSAMSWVRQAPGKGLEWVSRINPYEGETNYADSVKGRFTISRDNSKNTLYLQMNSLRAEDTAVYYCARGWSIATYYKSAMDYWGQGTLVTVSS VL: EIVLTQSPGTLSLSPGERATLSCRASQSVSSSYLAWYQQKPGQAPRLLIYGASSRATGIPDRFSGSGSGTDFTLTISRLEPEDFAVYYCQQSSYSAPVTFGQGTKVEIKR",Kd,human MSLN-His-Avi [1],30.1 nM
same,Kd,human MSLN-His-Avi [2],452 nM
same,Kd,cynomolgus MSLN-His-Avi [3],362 nM
same,EC50,[4],14.3 nM
same,Ratio of KD in solution/immobilised for human MSLN-His-Avi,human MSLN-His-Avi [5],15
same,EC50,[6],16.3 nM
"FS28-256-271 (in CD137 mAb^2 format) (bispecific antibody, V domains shown) VH: EVQLLESGGGLVQPGGSLRLSCAASGFTFTHTYMSWVRQAPGKGLEWVSAISPTYSTTNYADSVKGRFTISRDNNKNTLYLQMNSLRAEDTAVYYCARYNAYHAALDYWGQGTLVTVSS VL: EIVLTQSPGTLSLSPGERATLSCRASQSVSSSYLAWYQQKPGQAPRLLIYGASSRATGIPDRFSGSGSGTDFTLTISRLEPEDFAVYYCQQTVPYPYTFGQGTKVEIK","CD8+ T cell activation assay (IL-2 release), NCI-H226 cells for crosslinking: EC50",[7],0.096 nM
same,"CD8+ T cell activation assay (IL-2 release), NCI-H226 cells for crosslinking: EC50",CD137 on CD8+ T cells,0.096 nM
same,Kd,human MSLN-His-Avi [8],18.2 nM
same,Ratio of KD in solution/immobilised for human MSLN-His-Avi,human MSLN-His-Avi [9],3
same,Kd,human MSLN-His-Avi [10],5.9 nM
"OX40 (FS20-022-049)/FS28-256-271 mAb^2 (bispecific antibody, human IgG1, kappa, L234A L235A) heavy: EVQLLESGGGLVQPGGSLRLSCAASGFTFTHTYMSWVRQAPGKGLEWVSAISPTYSTTNYADSVKGRFTISRDNNKNTLYLQMNSLRAEDTAVYYCARYNAYHAALDYWGQGTLVTVSSASTKGPSVFPLAPSSKSTSGGTAALGCLVKDYFPEPVTVSWNSGALTSGVHTFPAVLQSSGLYSLSSVVTVPSSSLGTQTYICNVNHKPSNTKVDKKVEPKSCDKTHTCPPCPAPEAAGGPSVFLFPPKPKDTLMISRTPEVTCVVVDVSHEDPEVKFNWYVDGVEVHNAKTKPREEQYNSTYRVVSVLTVLHQDWLNGKEYKCKVSNKALPAPIEKTISKAKGQPREPQVYTLPPSRDEYWDQEVSLTCLVKGFYPSDIAVEWESNGDEQFAYKTTPPVLDSDGSFFLYSKLTVDQYRWNPADYFSCSVMHEALHNHYTQKSLSLSPG light: EIVLTQSPGTLSLSPGERATLSCRASQSVSSSYLAWYQQKPGQAPRLLIYGASSRATGIPDRFSGSGSGTDFTLTISRLEPEDFAVYYCQQTVPYPYTFGQGTKVEIKRTVAAPSVFIFPPSDEQLKSGTASVVCLLNNFYPREAKVQWKVDNALQSGNSQESVTEQDSKDSTYSLSSTLTLSKADYEKHKVYACEVTHQGLSSPVTKSFNRGEC","T cell activation assay (IL-2 release), NCI-H226 cells for crosslinking: EC50",[7],0.11 nM
same,"T cell activation assay (IL-2 release), NCI-H226 cells for crosslinking: EC50",[11],0.11 nM
"FS22-172-003-AA/FS28-256-271 mAb^2 (bispecific antibody, human IgG1, kappa, L234A L235A) heavy: EVQLLESGGGLVQPGGSLRLSCAASGFTFTHTYMSWVRQAPGKGLEWVSAISPTYSTTNYADSVKGRFTISRDNNKNTLYLQMNSLRAEDTAVYYCARYNAYHAALDYWGQGTLVTVSSASTKGPSVFPLAPSSKSTSGGTAALGCLVKDYFPEPVTVSWNSGALTSGVHTFPAVLQSSGLYSLSSVVTVPSSSLGTQTYICNVNHKPSNTKVDKKVEPKSCDKTHTCPPCPAPEAAGGPSVFLFPPKPKDTLMISRTPEVTCVVVDVSHEDPEVKFNWYVDGVEVHNAKTKPREEQYNSTYRVVSVLTVLHQDWLNGKEYKCKVSNKALPAPIEKTISKAKGQPREPQVYTLPPSRDELPYIIPPYNQVSLTCLVKGFYPSDIAVEWESNGQPENNYKTTPPVLDSDGSFFLYSKLTVGADRWLEGNVFSCSVMHEALHNHYTQKSLSLSPG light: EIVLTQSPGTLSLSPGERATLSCRASQSVSSSYLAWYQQKPGQAPRLLIYGASSRATGIPDRFSGSGSGTDFTLTISRLEPEDFAVYYCQQTVPYPYTFGQGTKVEIKRTVAAPSVFIFPPSDEQLKSGTASVVCLLNNFYPREAKVQWKVDNALQSGNSQESVTEQDSKDSTYSLSSTLTLSKADYEKHKVYACEVTHQGLSSPVTKSFNRGEC",fold difference of binding to cyno MSLN against human MSLN,cynomolgus MSLN-His-Avi [12],≤ 3 fold
